The numbers were not newly measured in PMC10565355, which cites them from elsewhere.

Usually Kd stands for the constant that tells how readily two partners part at equilibrium.

The target in this series is Fibrinogen (Homo sapiens) (UniProt P02671).
UniProt P02671, sequence (P02671 36-866, chain 1 of 3): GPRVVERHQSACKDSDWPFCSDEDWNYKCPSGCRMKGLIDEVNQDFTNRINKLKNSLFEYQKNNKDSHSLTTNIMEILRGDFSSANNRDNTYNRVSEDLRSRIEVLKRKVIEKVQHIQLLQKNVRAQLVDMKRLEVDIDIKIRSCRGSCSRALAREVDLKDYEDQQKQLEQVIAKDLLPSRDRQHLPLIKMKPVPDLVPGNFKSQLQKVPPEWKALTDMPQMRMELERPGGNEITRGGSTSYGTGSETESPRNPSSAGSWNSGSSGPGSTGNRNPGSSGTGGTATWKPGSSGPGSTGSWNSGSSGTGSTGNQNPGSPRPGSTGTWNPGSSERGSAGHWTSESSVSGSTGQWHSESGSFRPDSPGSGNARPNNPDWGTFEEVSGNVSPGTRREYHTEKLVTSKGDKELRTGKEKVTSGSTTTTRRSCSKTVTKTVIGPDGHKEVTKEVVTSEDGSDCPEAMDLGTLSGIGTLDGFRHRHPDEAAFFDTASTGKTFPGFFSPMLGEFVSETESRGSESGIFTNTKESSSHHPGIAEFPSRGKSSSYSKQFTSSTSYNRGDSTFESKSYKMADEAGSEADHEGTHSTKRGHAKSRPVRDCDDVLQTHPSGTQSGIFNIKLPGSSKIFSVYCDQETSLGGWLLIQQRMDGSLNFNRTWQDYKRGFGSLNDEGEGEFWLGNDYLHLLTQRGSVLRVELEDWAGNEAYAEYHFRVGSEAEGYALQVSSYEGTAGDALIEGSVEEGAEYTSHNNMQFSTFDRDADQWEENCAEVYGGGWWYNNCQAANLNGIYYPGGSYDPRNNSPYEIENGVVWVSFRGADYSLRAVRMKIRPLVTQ
UniProt P02671, sequence (P02675 45-491, chain 2 of 3, further chain): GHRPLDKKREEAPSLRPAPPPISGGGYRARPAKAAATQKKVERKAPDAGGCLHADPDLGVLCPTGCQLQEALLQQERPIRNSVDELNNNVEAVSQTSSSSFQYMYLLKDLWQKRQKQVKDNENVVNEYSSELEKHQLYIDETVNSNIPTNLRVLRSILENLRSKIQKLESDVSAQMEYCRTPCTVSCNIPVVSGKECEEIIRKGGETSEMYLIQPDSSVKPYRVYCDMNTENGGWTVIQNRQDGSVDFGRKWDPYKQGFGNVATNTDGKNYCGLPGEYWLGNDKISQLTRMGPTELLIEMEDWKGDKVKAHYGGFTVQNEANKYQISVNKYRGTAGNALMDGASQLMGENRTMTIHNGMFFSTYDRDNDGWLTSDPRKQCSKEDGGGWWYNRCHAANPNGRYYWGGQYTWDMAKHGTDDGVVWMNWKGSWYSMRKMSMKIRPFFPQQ
UniProt P02671, sequence (P02679 27-453, chain 3 of 3, further chain): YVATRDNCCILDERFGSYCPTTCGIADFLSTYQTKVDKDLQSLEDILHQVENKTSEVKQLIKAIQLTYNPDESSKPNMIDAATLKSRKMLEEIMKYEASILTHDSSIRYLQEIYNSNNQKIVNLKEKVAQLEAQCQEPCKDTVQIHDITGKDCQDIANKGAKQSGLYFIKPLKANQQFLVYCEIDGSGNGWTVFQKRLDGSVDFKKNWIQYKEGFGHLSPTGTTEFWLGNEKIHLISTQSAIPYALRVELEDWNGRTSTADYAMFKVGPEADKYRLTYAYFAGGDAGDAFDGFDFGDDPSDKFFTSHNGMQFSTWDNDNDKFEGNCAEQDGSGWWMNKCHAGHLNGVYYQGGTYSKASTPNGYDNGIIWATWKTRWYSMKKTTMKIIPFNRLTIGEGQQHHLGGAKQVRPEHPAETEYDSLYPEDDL

Turning to Efb EfbA (from UniProt A6QG59), the dissociation constant (Kd) is 1 µM.
